For 2 molecules, differential centrifugation after the light scatter assay: per cent of CS in the pellet and suppression of aggregation of chemically denatured CS, light scattering results are on record in publication PMC8063735.

In assay [1] the target is T1, citrate synthase (UniProt P00889).
T1 sequence: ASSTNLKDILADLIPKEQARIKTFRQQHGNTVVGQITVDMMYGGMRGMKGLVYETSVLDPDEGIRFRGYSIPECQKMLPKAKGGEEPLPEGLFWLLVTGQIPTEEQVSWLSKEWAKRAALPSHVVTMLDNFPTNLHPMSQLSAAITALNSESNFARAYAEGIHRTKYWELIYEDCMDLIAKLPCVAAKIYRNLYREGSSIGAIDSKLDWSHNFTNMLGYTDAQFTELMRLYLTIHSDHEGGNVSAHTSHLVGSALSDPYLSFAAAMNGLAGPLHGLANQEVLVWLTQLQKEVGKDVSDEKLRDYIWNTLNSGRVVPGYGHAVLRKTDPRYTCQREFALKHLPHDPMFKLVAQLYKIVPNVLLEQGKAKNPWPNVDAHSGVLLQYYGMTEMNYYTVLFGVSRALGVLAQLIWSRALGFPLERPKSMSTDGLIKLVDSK

For assay [2], the target named is T1, citrate synthase. The source holds these as a separate data set.

In the assay with citrate synthase [1], “Hsp110^ΔSBDβ (from UniProt Q9VUC1 1-804) (natural protein)” displayed a differential centrifugation after the light scatter assay: per cent of CS in the pellet of 4%.

B1: Drosophila melanogaster Hsp110 (Hsc70cb-encoded protein) (natural protein)
chain: MSVIGIDFGNESCYVAAARSGGIETLANDYSLRATPSFVAFDGKKRIIGVAAKNQQVTNMKNTVGGFKRLLGRKFNDPHVQHELTSIPARVEARGDGSIGIKVNYLGEDQHFGPEQLTAMLFTKLKETSAAAMQTQVNDCVIACPVFFTNAERKALLDAAQIAGLNVLRLMNETTATALAYGFYKNDLFEDKPRNVIFVDFGHSSLQASACAFTKGKLKMLASTWDQIGGRDIDLALGDYFAKEFQERYKINAKTNARANLRLLTEIEKLKKQMSANSTKLPLNIECFLDDIDVSSSMQRSQMEELCAPVLQRVEQTFKRLLAESKLQLDDIHSVEIVGGSSRIPSVKQLIEQVFNKPASTTLNQDEAVSRGAALQCAIMSPAVRVREFGVTDIQNYAVKVLWDSEGSAAPGEIEIFPQYHASPFSRLLTINRKGPFNVSIVYGQQVPYPDQTIGVWKVKDVKPTERGEGQDVKLKVRINNNGIVLISSATLVEKKEAEEAAAAAEQAASEEKPGDQTNNTGEPADGQQEGADKKKKASKATELPLECTTHGFSPVDLSNYTQQESKMIGNDQKETERIDAKNALEEFVYDMRNKLQGGPFERYVVEAEREKIVSQLNDLENWLYEDGEDCERDIYTSRLQALHQKTDPIKLRASDYEQGPAAFDELKNSIAIARLAVAEFRKGVPKYDHLTETEFINISETADKAQSWLDANLPKFTQSPRTADSPVQISAVRQEVQTLNSCVSSVINRAKPKPTPAKTATPPKDEANAEQNGGEPAANSGDKMDVDNNGQSAAGNDPSMEVE
For B1, in the assay with citrate synthase [2], the suppression of aggregation of chemically denatured CS, light scattering at 320 nm, chaperone to substrate 1:1, 2:1 and 4:1 was 50%.
